B1: Matrilin-1 (Homo sapiens), P21941 (parent)
chain: MRVLSGTSLMLCSLLLLLQALCSPGLAPQSRGHLCRTRPTDLVFVVDSSRSVRPVEFEKVKVFLSQVIESLDVGPNATRVGMVNYASTVKQEFSLRAHVSKAALLQAVRRIQPLSTGTMTGLAIQFAITKAFGDAEGGRSRSPDISKVVIVVTDGRPQDSVQDVSARARASGVELFAIGVGSVDKATLRQIASEPQDEHVDYVESYSVIEKLSRKFQEAFCVVSDLCATGDHDCEQVCISSPGSYTCACHEGFTLNSDGKTCNVCSGGGGSSATDLVFLIDGSKSVRPENFELVKKFISQIVDTLDVSDKLAQVGLVQYSSSVRQEFPLGRFHTKKDIKAAVRNMSYMEKGTMTGAALKYLIDNSFTVSSGARPGAQKVGIVFTDGRSQDYINDAAKKAKDLGFKMFAVGVGNAVEDELREIASEPVAEHYFYTADFKTINQIGKKLQKKICVEEDPCACESLVKFQAKVEGLLQALTRKLEAVSKRLAILENTVV

Variants of: B1
Conditions: with co2a1_bovin COL2A1, P02459
Chain of co2a1_bovin COL2A1, P02459 (P02459 whole entry): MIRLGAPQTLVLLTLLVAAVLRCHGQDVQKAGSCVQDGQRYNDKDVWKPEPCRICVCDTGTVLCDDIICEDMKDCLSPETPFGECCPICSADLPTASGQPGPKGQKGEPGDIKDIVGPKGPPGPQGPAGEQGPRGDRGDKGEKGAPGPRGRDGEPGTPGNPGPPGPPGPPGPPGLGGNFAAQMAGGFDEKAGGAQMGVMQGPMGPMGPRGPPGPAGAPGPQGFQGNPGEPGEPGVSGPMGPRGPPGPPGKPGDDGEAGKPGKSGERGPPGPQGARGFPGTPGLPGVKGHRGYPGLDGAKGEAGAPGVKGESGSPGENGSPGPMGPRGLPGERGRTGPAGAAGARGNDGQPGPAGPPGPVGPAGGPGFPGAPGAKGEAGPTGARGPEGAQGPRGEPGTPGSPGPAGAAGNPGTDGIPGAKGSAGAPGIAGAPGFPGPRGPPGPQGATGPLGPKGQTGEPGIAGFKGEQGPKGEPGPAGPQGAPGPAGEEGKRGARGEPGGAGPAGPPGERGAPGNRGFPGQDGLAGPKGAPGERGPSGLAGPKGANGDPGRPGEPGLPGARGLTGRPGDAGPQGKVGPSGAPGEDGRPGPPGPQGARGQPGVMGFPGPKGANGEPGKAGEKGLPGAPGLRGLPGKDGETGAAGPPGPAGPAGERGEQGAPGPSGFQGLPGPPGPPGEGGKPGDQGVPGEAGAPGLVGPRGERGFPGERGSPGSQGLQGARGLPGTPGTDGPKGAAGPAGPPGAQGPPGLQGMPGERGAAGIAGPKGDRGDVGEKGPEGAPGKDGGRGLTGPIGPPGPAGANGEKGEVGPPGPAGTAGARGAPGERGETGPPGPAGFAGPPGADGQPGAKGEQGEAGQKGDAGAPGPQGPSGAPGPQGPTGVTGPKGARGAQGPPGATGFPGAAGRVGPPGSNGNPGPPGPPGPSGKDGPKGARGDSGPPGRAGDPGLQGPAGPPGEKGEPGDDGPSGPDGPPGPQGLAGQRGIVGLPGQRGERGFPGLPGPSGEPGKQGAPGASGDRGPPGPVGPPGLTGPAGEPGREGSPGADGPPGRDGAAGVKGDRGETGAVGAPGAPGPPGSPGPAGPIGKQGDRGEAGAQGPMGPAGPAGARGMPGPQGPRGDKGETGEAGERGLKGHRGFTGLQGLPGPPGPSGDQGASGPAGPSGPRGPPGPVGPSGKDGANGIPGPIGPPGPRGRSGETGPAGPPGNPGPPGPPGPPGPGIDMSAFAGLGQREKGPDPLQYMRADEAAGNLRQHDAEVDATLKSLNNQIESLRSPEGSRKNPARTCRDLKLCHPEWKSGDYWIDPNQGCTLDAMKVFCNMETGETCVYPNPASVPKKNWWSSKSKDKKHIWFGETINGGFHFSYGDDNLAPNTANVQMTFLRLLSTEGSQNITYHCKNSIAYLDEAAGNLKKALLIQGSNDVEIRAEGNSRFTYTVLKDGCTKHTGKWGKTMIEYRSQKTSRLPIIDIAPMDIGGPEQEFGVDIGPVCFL

Variant	effect of a mutation on the interaction
MRVLSGTSLMLCSLLLLLQALCSPGLAPQSRGHLCRTRPTDLVFVVDSSRSVRPVEFEKVKVFLSQVIESLDVGPNATRVGMVNYASTVKQEFSLRAHVSKAALLQAVRRIQPLSTGTMTGLAIQFAITKAFGDAEGGRSRSPDISKVVIVVTDGRPQDSVQDVSARARASGVELFAIGVGSVDKATLRQIASEPQDEHVDYVESYSVIEKLSRKFQEAFCVVSDLCATGDHDCEQVCISSPGSYTCACHEGFTLNSDGKTCNVCSGGGGSSATDLVFLIDGSKSVRPENFELVKKFISQIVDTLDVSDKLAQVGLVQYSSSVRQEFPLGRFHTKKDIKAAVRAMSYMEKGTMTGAALKYLIDNSFTVSSGARPGAQKVGIVFTDGRSQDYINDAAKKAKDLGFKMFAVGVGNAVEDELREIASEPVAEHYFYTADFKTINQIGKKLQKKICVEEDPCACESLVKFQAKVEGLLQALTRKLEAVSKRLAILENTVV [N344A]	with no effect

Variants of: B1
Conditions: with co2a1_bovin COL2A1, P02459
Remark: another data set of the same source

Variant	effect of a mutation on the interaction
MRVLSGTSLMLCSLLLLLQALCSPGLAPQSRGHLCRTRPTDLVFVVDSSRSVRPVEFEKVKVFLSQVIESLDVGPAATRVGMVNYASTVKQEFSLRAHVSKAALLQAVRRIQPLSTGTMTGLAIQFAITKAFGDAEGGRSRSPDISKVVIVVTDGRPQDSVQDVSARARASGVELFAIGVGSVDKATLRQIASEPQDEHVDYVESYSVIEKLSRKFQEAFCVVSDLCATGDHDCEQVCISSPGSYTCACHEGFTLNSDGKTCNVCSGGGGSSATDLVFLIDGSKSVRPENFELVKKFISQIVDTLDVSDKLAQVGLVQYSSSVRQEFPLGRFHTKKDIKAAVRNMSYMEKGTMTGAALKYLIDNSFTVSSGARPGAQKVGIVFTDGRSQDYINDAAKKAKDLGFKMFAVGVGNAVEDELREIASEPVAEHYFYTADFKTINQIGKKLQKKICVEEDPCACESLVKFQAKVEGLLQALTRKLEAVSKRLAILENTVV [N76A]	increasing interaction strength

— IntAct's records for PubMed 20729554
